Measured values from patent US20250197525A1 (MINOTAUR THERAPEUTICS, published 2025).

B1: B15 Variant 1 (chimeric BLV1H12-IL-15 fusion antibody) (antibody, human IgG1, lambda, L234A L235A)
heavy: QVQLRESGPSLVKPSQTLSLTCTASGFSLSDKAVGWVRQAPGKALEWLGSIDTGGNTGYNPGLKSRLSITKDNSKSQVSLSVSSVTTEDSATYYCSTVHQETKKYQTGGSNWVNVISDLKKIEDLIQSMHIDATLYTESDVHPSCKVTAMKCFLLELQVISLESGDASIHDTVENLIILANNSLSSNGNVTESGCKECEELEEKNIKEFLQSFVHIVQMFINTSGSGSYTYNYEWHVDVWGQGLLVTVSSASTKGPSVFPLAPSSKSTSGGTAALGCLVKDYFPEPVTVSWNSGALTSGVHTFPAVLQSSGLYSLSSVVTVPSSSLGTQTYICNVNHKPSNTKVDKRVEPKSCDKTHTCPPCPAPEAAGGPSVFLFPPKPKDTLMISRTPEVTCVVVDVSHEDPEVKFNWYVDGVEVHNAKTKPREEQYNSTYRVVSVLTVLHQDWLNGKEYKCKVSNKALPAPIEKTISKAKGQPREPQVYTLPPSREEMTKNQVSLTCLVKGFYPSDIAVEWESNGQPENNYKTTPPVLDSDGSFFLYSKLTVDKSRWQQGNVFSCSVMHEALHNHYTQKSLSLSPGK
light: QAVLNQPSSVSGSLGQKVTISCSGSSSNIGNNYVSWYQQLPGTAPKLLIYGDTKRPSGIPDRFSGSKSGTSATLGITGLQTGDEADYYCASAEDSSSNAVFGSGTTLTVLGQPKAAPSVTLFPPSSEELQANKATLVCLISDFYPGAVTVAWKADSSPVKAGVETTTPSKQSNNKYAASSYLSLTPEQWKSHRSYSCQVTHEGSTVEKTVAPTECS
B2: B15 Variant 3 (chimeric BLV1H12-IL-15 fusion antibody) (antibody, human IgG1, lambda, L234A L235A)
heavy: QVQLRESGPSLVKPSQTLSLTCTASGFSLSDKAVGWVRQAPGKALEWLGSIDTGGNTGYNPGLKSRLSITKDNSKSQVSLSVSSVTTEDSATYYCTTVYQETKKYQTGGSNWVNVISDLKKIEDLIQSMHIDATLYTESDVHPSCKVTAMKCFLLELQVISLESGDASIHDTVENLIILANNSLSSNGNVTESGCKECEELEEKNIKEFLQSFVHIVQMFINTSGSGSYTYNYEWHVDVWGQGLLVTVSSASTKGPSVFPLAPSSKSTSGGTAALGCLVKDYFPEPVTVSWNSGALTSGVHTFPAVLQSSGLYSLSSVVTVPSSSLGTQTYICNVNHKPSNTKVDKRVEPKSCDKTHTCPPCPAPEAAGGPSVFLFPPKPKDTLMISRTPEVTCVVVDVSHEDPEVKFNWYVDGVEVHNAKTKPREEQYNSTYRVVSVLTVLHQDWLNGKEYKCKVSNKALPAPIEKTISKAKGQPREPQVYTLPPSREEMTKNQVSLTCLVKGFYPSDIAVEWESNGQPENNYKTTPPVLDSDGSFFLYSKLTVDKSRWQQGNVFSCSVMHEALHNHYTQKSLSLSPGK
light: B1 light

Biological target: T1, IL2/15Rβ and γc receptor subunits (UniProt P31785 23-369, limits assumed)
T1 sequence 1: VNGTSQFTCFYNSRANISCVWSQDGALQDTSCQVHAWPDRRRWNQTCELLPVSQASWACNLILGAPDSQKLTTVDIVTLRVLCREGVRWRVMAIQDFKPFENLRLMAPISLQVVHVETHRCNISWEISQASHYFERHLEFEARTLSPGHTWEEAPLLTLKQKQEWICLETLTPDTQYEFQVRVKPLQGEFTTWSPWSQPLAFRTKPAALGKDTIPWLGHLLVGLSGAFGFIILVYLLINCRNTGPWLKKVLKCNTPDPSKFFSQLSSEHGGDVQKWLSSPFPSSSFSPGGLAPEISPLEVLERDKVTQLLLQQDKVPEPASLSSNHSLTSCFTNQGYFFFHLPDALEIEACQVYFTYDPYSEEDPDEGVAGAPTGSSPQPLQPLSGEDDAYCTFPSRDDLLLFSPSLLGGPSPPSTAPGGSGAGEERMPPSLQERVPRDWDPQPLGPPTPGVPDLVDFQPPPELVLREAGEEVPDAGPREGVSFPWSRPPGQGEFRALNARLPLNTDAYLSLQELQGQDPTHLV
T1 sequence 2: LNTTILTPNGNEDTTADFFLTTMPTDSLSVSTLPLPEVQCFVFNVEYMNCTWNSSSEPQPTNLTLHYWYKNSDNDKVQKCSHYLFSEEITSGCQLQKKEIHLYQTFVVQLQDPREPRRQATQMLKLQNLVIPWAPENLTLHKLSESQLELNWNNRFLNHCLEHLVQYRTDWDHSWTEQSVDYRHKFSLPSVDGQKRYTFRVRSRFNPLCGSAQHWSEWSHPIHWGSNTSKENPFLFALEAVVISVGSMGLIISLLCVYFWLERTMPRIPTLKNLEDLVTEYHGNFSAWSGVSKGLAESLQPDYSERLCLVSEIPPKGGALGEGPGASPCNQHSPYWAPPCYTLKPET
Assay: cell-based or functional assay

Row | Binder | EC50 (nM), STAT5 inducible SEAP reporter in HEK-Blue IL2 reporter cells [nM]
1 | B1 | 0.032
2 | B2 | 0.026
